Assay results from patent WO2023191079A1 (dated 2023).

Target: T1, SpyCatcher-GOx (fusion protein with SpyCatcher and glucose oxidase in this order from the N-terminus)
T1 construct: also called SpyCatcher-fused glucose oxidase; SpyCatcher fusion GOx
Assay: 5 uM each mixed, overnight at 4 C, SDS-PAGE

B1: scFv-ST (anti-CRP scFv antibody with SpyTag added) (scFv)
scFv: HMASQVQLQQSGAELVKPGASVKLSCTASGFNIKDYYMHWVKQRTEQGLEWIGRIDPEDGETKYAPKFQGKATITADTSSNTAYLQLSSLTSEDTAVYYCARGYYGSEAMDYWGQGTSLTVSSGGGGSGGGGSGGGGSTGSIVMTQSHKFMSTSVGDRVSITCKASQDVNTAVAWYQQKPGQSPKLLIYWASTRHTGVPDRFTGSGFGTDYTLTISSVQAEDLALYYCQQHYSTPWTFGGGTKLEIKRADAAPKLAAAGSGAHIVMVDAYKPTKAEQKLISEEDLNLGGGMRGSHHHHHH
B1: binds.
